Patent US5223421A, “Identification of methionine Nα-acetyltransferase” (The General Hospital Corporation, priority 1990, dated 1993)

How the values were obtained:
[1] = tested on: methionine N^α -acetyltransferase (M-N^α -AT); assay: Relative activity of M-N^α -AT for N^α -acetylation of synthetic peptides; assay type: biochemical, Saccharomyces cerevisiae; design: tested at 50 µM; settings: Table 7, influence of the penultimate amino terminal residue
Description: (§1) N^α -acetylt[…] was determined as previously described [Lee et al., J. Biol. Chem. 263:14948-14955 (1988)]. Aliquots of the lysate or chromatographic fractions were added to 1.5 ml Eppendorf tubes containing a reaction mixture of 50 mM HEPES, pH 7.4, 150 mM KCl, 1 mM DTT, 25 μM [^3 H] acetyl coenzyme A (0.5 μCi) and 50 μM synthetic peptide with an adjusted final volume of 100 μl. The assay mixture was incubated at 30° C. for 30 min. The reaction was stopped by adding 17 μl of 0.5M acetic acid and chilled in an ice bath. The reaction samples were filtered through SP membrane discs (Cuno) (previously pre-swollen in 0.5M acetic acid), and then washed three times with 1 ml of 0.5M acetic acid on a Millipore 1225 sampling manifold. The partially dried membranes were placed in scintillation cocktail and counted with a Beckman LS 3801 scintillation counter. One unit of activity was defined as the amount of enzyme able to transfer 1 pmol of [^3 H] acetyl group from [^3 H] acetyl coenzyme A to synthetic peptide per min under standard enzyme assay conditions defined above.
(§2) In order to compare the relative specificity and activity of the methionine N^α -acetylt[…] (M-N^α -AT) of the present invention with the specificity and activity of the AAA1 N^α -acetyltransferase (N^α -AT) of Lee, F.-J. S., et al., J. Bacteriol. 171, (1989), U.S. Patent Application of John A. Smith, and Fang-Jen S. Lee, filed Oct. 25, 1989, entitled "ISOLATION OF STRAINS OF SAC[…] ALTERED N^α -ACETYLT[…]" (which references have been incorporated herein by reference) synthetic peptides were prepared. These peptides were assessed for their ability to serve as substrates for the two enzymes. In Table 6, the effect of the amino terminal amino acid on activity is investigated; in Table 7, the effect of the penultimate amino terminal amino acid on activity is investigated.

[2] = biological target: T1, AAA1 N^α -acetyltransferase (N^α -AT) (Saccharomyces cerevisiae, UniProt P07347+P12945); assay: Relative activity of N^α -AT for N^α -acetylation of synthetic peptides; assay type: biochemical
T1 sequence (P12945 2-854 limits assumed): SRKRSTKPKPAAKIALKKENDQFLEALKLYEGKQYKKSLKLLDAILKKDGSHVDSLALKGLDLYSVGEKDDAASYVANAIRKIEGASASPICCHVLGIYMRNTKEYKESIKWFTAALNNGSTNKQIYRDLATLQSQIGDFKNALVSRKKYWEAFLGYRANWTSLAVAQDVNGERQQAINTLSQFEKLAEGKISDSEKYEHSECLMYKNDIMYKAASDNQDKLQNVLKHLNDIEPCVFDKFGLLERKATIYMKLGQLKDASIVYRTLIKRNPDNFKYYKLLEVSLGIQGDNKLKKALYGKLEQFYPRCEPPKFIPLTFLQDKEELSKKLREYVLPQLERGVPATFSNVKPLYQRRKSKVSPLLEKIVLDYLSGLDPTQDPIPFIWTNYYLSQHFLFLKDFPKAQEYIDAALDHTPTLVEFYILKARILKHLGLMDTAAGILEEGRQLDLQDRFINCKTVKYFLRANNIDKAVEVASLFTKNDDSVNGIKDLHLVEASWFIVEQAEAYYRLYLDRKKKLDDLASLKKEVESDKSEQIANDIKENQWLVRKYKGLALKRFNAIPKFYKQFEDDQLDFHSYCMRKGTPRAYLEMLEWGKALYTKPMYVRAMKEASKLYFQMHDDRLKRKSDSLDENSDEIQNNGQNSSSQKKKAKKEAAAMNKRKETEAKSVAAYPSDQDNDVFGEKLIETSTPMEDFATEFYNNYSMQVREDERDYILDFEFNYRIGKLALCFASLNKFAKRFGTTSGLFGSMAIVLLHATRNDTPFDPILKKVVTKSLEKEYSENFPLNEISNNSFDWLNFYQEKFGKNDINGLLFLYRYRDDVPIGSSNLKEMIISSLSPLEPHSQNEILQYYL
T1 sequence (P07347 1-238): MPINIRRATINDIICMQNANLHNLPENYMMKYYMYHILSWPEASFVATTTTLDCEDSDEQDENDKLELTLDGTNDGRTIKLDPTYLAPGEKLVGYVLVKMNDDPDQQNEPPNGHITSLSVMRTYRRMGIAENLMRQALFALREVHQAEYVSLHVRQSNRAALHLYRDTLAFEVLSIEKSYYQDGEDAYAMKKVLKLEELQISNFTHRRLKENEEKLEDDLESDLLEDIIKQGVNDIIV
Description: as §1, §2

[3] = Table 6, influence of the amino terminal residue
[4] = Table 7, influence of the penultimate amino terminal residue

| Substance | Activity (%) (mean activity ± S.D.) M-N^a -AT [1] | Activity (%) (mean activity ± S.D.) N^a -AT [2, 3] | Activity (%) (mean activity ± S.D.) N^a -AT [2, 4] |
| --- | --- | --- | --- |
| SIPETQKGVIFYESHGKLEYKDIP (SIPETQKGVIFYESHGKLEYKDIP) [Alcohol dehydrogenase (1-24) (Yeast)] | 0 | 102 ± 5 | 102 ± 5 |
| SYSMEHFRWGKPVGKKRRPVKVYP | 0 | 100 ± 5 | 100 ± 5 |
